Test results: patent publication US20240417484A1, “ANTIGEN-BINDING POLYPEPTIDES AGAINST CD73” (UNIVERSITÄTSKLINIKUM HAMBURG-EPPENDORF, priority 2021, published 2024)
Where a chain is given by its changes, count along the chain named. Blank lines part the entries; values can stand above or below the molecule they belong to.

Columns and labels:
human CD73 = target: T1, human CD73 (Homo sapiens, UniProt P21589); assay: Flow cytometry binding of rabbit IgG hcAbs to human CD73-transfected HEK cells; details: family representative clone; h = binds human CD73, m = binds mouse CD73
T1 construct: expressed in transfected cells; stably transfected in method 5.1)
T1 sequence (P21589 27-549): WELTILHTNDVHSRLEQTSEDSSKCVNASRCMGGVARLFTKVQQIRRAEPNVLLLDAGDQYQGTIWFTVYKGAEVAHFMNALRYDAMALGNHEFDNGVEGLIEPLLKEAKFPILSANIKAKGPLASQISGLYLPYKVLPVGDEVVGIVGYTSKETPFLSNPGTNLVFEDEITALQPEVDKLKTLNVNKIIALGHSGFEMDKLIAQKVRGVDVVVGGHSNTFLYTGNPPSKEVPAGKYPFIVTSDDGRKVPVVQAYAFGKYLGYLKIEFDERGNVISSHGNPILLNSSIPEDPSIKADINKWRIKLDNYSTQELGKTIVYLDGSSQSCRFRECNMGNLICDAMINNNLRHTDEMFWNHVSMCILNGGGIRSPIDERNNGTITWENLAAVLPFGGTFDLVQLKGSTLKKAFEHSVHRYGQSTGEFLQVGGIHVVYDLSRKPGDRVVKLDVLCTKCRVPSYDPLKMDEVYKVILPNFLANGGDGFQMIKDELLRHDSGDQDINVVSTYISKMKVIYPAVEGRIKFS
Protocol: HEK cells were co-transfected with expression vectors for green fluorescent protein (GFP) and human CD73, mouse CD73, and a control cell surface protein (CD39). 48 h after transfection, cells were incubated with HEK cell supernatants containing the indicated rabbit IgG hcAbs. Bound antibodies were detected with PE-conjugated anti rabbit IgG secondary antibody.
(§1) • 5.1 Untransfected HEK293 cells and HEK293 cells stably transfected with human or mouse CD73 were incubated for 30 min with HEK-6E cell supernatants containing rabbit IgG hcAbs (diluted 1:10 in PBS/0.1% BSA). Following washing with PBS/0.1% BSA, bound antibodies were detected with PE-conjugated goat anti-rabbit IgG polyclonal antibody (711-116-152 Dianova, Hamburg). • 5.2 For dissociation analyses, two separate aliquots of CD73-transfected cells were incubated either with Cell Proliferation Dye eFluor 450 (eBioscience) or with hcAbs for 20 min at RT. Cells were washed four times, mixed at a 1:1 ratio and further incubated at RT for 120 min before staining of bound antibodies with PE-conjugated goat anti-rabbit IgG polyclonal antibody. The dissociation of hcAbs from the target cells and association with the eFluor 450 labeled cells was analyzed by flow cytometry using the FlowJo software (Treestar). • 5.3 For epitope analyses, cells were preincubated with excess human IgG hcAbs (10 μl HEK-6E cell supernatant/100 μl PBS/0.1% BSA) for 30 min at RT before addition of Nb-rabbit IgG hcAbs (1 μl HEK-6E cell supernatant/100 μl PBS/0.1% BSA) and further incubation for 20 min at RT and staining with PE-conjugated anti-rabbit polyclonal antibody (711-116-152 Dianova, Hamburg). Cells were washed and analyzed by flow cytometry on a BD-FACS Canto. Data were analyzed using the FlowJo software (Treestar).
The binding specificities of the purified hcAbs were determined by flow cytometry using HEK cells transiently co-transfected with expression vectors for GFP and either mouse CD73, human CD73 or a control protein (CD39). 1×10^6 cells were incubated with 10 μl of the Nb-rbIgG hcAb containing HEK-6E cell supernatants for 30 min at 4° C. After washing, the cells were incubated with PE-conjugated anti-rabbit IgG polyclonal antibody (711-116-152 Dianova, Hamburg) and washed twice. The cells were resuspended in PBS and analyzed by flow cytometry on FACS Canto or FACS Celesta (BD Biosciences, Heidelberg). Data evaluation was conducted using the software FlowJo (Treestar, Stanford, US).

[1] = target: T2, human CD73-transfected HEK cells (Homo sapiens, UniProt P21589); assay: Epitope binning by flow cytometry (human IgG hcAb blocks rabbit IgG hcAb); format: binding; details: epitope assignment on human CD73 from binning
T2 construct: expressed in transfected cells; stably transfected in method 5.1)
T2 sequence (P21589 27-549): T1 sequence (P21589 27-549)
Protocol: as §1
To evaluate the epitopes on the CD73 protein recognized by different VHHs, representative rabbit IgG hcAbs were binned against a set of human IgG hcAbs, and bound hcAbs were detected with a PE-conjugated anti-rabbit IgG secondary antibody. Cells were pre-incubated with excess human IgG hcAbs for […] at RT to block specific epitopes before addition of rabbit IgG hcAbs as detectors and further incubation for 15 min at RT. Cells were washed, and bound antibodies were detected with PE-conjugated anti-rabbit IgG polyclonal antibody. Cells were washed and analyzed by flow cytometry on a BD-FACS Canto. Data were analyzed using the FlowJo software (Treestar). Lack of blockade by a non-binding control human IgG hcAb served as negative control (unblocked), and blockade of binding with the same VHH carrying human IgG hcAb as the rabbit IgG hcAb used for detection served as positive controls for blocking. Values for blocking were determined by comparing the mean fluorescence intensities (MFIs) of PE staining of transfected cells for unblocked vs blocked rabbit hcAbs using the formula: inhibition (%)=100−(MFI (blocked)/MFI MFI(unblocked)*100). The values were rounded to whole percentages.

soluble human CD73 [2] = target: T3, soluble human CD73 (Homo sapiens, UniProt P21589); assay: Off-rates of soluble CD73 from immobilized Nb-rbIgG hcAb on Octet BLI; format: binding; details: soluble human CD73 ectodomain 200 ng/μl as analyte; Nb-rbIgG hcAb immobilized on protein A biosensor
T3 construct: The ectodomain of CD73 (aa 27-549) was expressed as a recombinant protein with a C-terminal His6× tag; His6 (C); made in house; host or cells: transiently transfected HEK cells
T3 sequence (P21589 27-549): T1 sequence (P21589 27-549)
Protocol: The binding off-rate constants of bivalent hcAbs to human and mouse CD73 protein were determined by […] kinetic analysis on Octet RED96 (ForteBio). Immobilization of rabbit IgG hcAbs on the protein A-biosensor surface was done in HEK-6E cell supernatant, and regeneration of analytes was done with 100 mM Glycin pH=2.5. Recombinant mouse or human CD73 ectodomain was used as analytes and tested at a saturating dose of 200 ng/μl. Sensorgrams were fitted using least square regression in association than dissociation Model in Prism8 (Graphpad).

soluble human CD73 [3] = target: T3, soluble human CD73; assay: AMP hydrolysis by soluble CD73, DPEA-Napht-Azide fluorescence assay; format: biochemical; details: 50 ng CD73, 30 min pre-incubation with 10 μl hcAb supernatant, 1 mM AMP
Protocol: Recombinant human CD73 (50 ng) was pre-incubated for 30 min with hcAbs at RT in 96 well plates before addition of AMP and DPEA-Napht-Azide. Fluorescence signals were detected every 50 seconds for 30 repeats. ARFU values (>10^3/min) were calculated for a 10 min interval during the linear phase (from 5 min to 15 min) using Prism software (Graphpad). A non-specific rabbit IgG hcAb was used as control.
• 4.1 CD73 catalyzes the hydrolysis of AMP to adenosine. This reaction can be monitored by the shift in fluorescence intensity of DPEA-Napht-Azide. This property was used to determine whether hcAbs could interfere with the enzymatic activity of CD73. Soluble recombinant human CD73 (50 ng) was pre-incubated for 30 min with Nbs or hcAbs (10 μl HEK-6E cell supernatant containing 10-100 μg/ml hcAb) at RT in 96 well plates before addition of AMP (Sigma) to a final concentration of 1 mM and of DPEA-Napht-Azide to a final concentration of 50 μM. • 4.2 Fluorescence signals were recorded in white Nunc MicroWell plates (Nunc, 136101) on a Victor III plate reader (Perkin Elmer) (Exicitation filter: F485, Emission Filter: F535; CW-Lamp energy: 40000, counting time: 0.1 s). Data analyses were performed using Prism (Graphpad).
Soluble recombinant human CD73 (50 ng) was pre-incubated for 30 min with CD73-specific hcAbs or an irrelevant control hcAb (10 μl HEK-6E cell supernatant) at RT in 96 well plates before addition of AMP (Sigma) to a final concentration of 1 mM and of DPEA-Napht-Azide to a final concentration of 50 μM. Fluorescence signals were detected every 50 seconds for 30 repeats. Data analyses were performed using Prism (Graphpad).

[4] = target: T4, CD73-expressing human AML-OCI3 cells (Homo sapiens, UniProt P21589); assay: AMP degradation by cell bound CD73, luminometric AMPglow assay; format: cell-based; details: AML-OCI3 cells; 10 μl supernatant of single clone or 5+5 μl of two clones
T4 construct: CD73-expressing human AML-OCI3 cells (AML cell line); endogenous in cells; host or cells: OCI-AML3 human AML cell line
T4 sequence (P21589 27-549): T1 sequence (P21589 27-549)
Protocol: AMP was added and AMP degradation was measured using the luminometric AMPglow assay. Data analyses were performed using Prism (Graphpad).
Soluble recombinant human CD73 or CD73-expressing human […] cells were incubated with CD73-specific dimeric clones SB116-rbFc, SB188-rbFc, biparatopic SB116-188-Alb trimers or with non-binding L-10e-rbFc clone (control). AMP was added and AMP degradation was measured using the luminometric AMPglow assay. Data analyses were performed using Prism (Graphpad).

Epitope [1]: 1
inhibition of AMP degradation [4]: pronounced inhibition of AMP degradation
Kdis (soluble human CD73 [2]): 0.0013 s⁻¹
B3: SB143: CD73-specific alpaca VHH clone, family 4 in Tables 1-3, SEQ ID NO:69; tested as rabbit or human IgG hcAb (antibody)
heavy: QVQLVESGGGLVQAGGSLRLSCAASGRTFSRSTMGWFRQAPGKERVFVAAIRWIGGTTTYGDSVKGRFTISVDNAKNTLYLQMNSLKPEDTAVYYCAATAGGPYYLGGRDILYDYWGQGTQVTVSS
modifications: left off: a dimerising Fc or GST
notes: tested as rabbit or human IgG hcAb
effect on hydrolysis of AMP by soluble CD73 (soluble human CD73 [3]): inhibited CD73 catalyzed hydrolysis of AMP

specificity (human CD73): h + m
inhibition of AMP degradation [4]: pronounced inhibition of AMP degradation
Kdis (soluble human CD73 [2]): 0.00023 s⁻¹
B4: SB144: CD73-specific alpaca VHH clone, family 4 in Tables 1-2, SEQ ID NO:70; tested as rabbit IgG hcAb (antibody)
heavy: B3 heavy with R31G, V46A, T58A, T59K, V72I, Y104D, L112V
modifications: left off: a dimerising Fc or GST
notes: tested as rabbit IgG hcAb
effect on hydrolysis of AMP by soluble CD73 (soluble human CD73 [3]): inhibited CD73 catalyzed hydrolysis of AMP

The remaining lines, values behind:

B1: SB121: CD73-specific alpaca VHH clone, family 5, SEQ ID NO:82; tested as rabbit or human IgG hcAb (antibody)
heavy: QVQLQESGGGLVQAGGSLRLSCAASGSIGSIIAMGWYRQGPGKQRELVARMFTDDGSTNYDDSVKGRFTISRDSAGTTVYLQMNSLKPEDTAVYYCNAQRRWNAYWGPGTQVTVSS
modifications: left off: a dimerising Fc or GST
notes: as for B3
specificity (human CD73): h + m
Epitope [1]: 4
Kdis (soluble human CD73 [2]): 0.022 s⁻¹

B2: SB116: CD73-specific alpaca VHH clone, family 3, SEQ ID NO:81; tested as rabbit or human IgG hcAb (antibody)
heavy: QVKLQESGGGRVQTGGSLRLSCAASGISFSITTMYWYRQAPGEQRQLVALITDRGNTYYVDSVKGRFTISRDDSKNTVYLQMNDLKPEDTAVYFCNSIPGNDWGQGTQVTVSS
modifications: left off: a dimerising Fc or GST
notes: as for B3
specificity (human CD73): h + m
Epitope [1]: 1
effect on hydrolysis of AMP by soluble CD73 (soluble human CD73 [3]): effectively blocked hydrolysis of AMP
Kdis (soluble human CD73 [2]): 0.00017 s⁻¹

B5: SB139: CD73-specific alpaca VHH clone, family 6, SEQ ID NO:83; tested as rabbit or human IgG hcAb (antibody)
heavy: QVQLQESGGGLVQAGGSLRLSCAASENIFNIYGMGWYRQAPGKLRDLVAKITSGGRTTYADSVKGRFTISGDNAKNTVYLQMNSLKPEDTAVYYCNSYYYWGQGTQVTVSS
modifications: left off: a dimerising Fc or GST
notes: as for B3
specificity (human CD73): h + m
Kdis (soluble human CD73 [2]): 0.046 s⁻¹

B6: SB141: CD73-specific alpaca VHH clone, family 2 in Tables 2-3, SEQ ID NO:72; tested as rabbit or human IgG hcAb (antibody)
heavy: QVQLVESGGGLVQPGGSLRLSCAASGFTFINYHMSWLRQAPGKGLEWVSEIHSRGDITSYTNSVKGRFTISRDNAKNTLYLQMNSLKFDDTAVYYCARSRDLFNEGEYDYWGRGTQVTVSS
modifications: left off: a dimerising Fc or GST
notes: as for B3
Epitope [1]: 2
effect on hydrolysis of AMP by soluble CD73 (soluble human CD73 [3]): did not
Kdis (soluble human CD73 [2]): 0.00045 s⁻¹
